Source: patent US20210147526A1

What was measured:
[1] = target: ITGA7 mutant S977A on HEK-293T cells (human) (UniProt P05556); test: high-throughput flow cytometry on HEK-293T cells with the ITGA7 alanine mutant, high stringency, normalized to wild type
[2] = target: ITGA7 mutant P980A on HEK-293T cells (human) (UniProt P05556); test: as above
Sequence of ITGA7 mutant P980A on HEK-293T cells (human) (chain, as listed by the source P980A P980A, chain 1 of 2): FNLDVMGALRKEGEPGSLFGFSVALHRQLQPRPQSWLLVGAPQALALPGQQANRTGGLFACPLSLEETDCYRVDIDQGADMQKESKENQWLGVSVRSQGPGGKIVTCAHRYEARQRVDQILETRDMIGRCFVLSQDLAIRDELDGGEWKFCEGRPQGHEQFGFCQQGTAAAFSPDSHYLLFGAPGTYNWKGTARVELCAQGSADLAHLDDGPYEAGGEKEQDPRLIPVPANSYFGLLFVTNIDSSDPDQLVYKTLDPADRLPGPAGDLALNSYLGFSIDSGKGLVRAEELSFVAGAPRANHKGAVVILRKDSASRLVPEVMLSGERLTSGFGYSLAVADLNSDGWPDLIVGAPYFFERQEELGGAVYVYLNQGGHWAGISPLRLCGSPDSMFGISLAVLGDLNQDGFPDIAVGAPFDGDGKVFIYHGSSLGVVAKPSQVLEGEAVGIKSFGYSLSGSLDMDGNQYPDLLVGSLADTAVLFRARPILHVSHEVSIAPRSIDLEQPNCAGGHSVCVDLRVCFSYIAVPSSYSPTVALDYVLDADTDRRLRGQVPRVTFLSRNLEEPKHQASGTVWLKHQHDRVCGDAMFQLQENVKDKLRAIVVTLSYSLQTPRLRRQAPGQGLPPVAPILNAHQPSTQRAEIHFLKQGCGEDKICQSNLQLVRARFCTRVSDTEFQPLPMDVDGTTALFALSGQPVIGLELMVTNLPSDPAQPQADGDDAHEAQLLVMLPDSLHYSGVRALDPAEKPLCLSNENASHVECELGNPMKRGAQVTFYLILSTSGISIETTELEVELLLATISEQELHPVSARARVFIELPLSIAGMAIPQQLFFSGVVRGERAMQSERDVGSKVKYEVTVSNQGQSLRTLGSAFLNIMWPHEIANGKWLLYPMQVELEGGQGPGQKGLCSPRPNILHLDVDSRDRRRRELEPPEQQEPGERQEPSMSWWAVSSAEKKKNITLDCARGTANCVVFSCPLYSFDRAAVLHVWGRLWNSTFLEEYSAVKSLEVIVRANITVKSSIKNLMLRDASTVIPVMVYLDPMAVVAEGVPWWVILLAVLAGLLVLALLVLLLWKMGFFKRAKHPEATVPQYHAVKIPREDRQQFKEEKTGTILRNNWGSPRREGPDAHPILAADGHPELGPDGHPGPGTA
Sequence of ITGA7 mutant P980A on HEK-293T cells (human) (P05556 21-798, chain 2 of 2): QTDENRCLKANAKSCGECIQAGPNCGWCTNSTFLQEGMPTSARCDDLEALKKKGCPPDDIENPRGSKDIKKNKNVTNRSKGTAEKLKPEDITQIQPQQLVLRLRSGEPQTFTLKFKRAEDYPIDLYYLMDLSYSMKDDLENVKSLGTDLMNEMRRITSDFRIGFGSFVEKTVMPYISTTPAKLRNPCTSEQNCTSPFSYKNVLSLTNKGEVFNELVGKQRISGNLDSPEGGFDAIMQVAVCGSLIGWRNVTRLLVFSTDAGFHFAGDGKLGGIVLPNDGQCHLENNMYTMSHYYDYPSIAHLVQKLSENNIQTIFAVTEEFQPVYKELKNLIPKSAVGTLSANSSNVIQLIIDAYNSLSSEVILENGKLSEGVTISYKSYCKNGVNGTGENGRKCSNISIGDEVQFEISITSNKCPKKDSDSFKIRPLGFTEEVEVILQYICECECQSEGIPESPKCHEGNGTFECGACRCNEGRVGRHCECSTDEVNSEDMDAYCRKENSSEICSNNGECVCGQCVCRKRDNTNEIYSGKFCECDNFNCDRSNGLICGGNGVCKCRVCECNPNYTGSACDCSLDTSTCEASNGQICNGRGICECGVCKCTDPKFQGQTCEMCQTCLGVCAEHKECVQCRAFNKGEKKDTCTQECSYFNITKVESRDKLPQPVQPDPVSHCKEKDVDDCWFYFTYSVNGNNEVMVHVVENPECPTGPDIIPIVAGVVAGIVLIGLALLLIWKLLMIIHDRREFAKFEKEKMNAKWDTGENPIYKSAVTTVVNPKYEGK

Sequence of ITGA7 mutant S977A on HEK-293T cells (human) (chain, as listed by the source S977A S977A, chain 1 of 2): as the sequence (chain, as listed by the source P980A P980A, chain 1 of 2) above, with S944A, A947P counted along it
Sequence of ITGA7 mutant S977A on HEK-293T cells (human) (P05556 21-798, chain 2 of 2): as the sequence (P05556 21-798, chain 2 of 2) above

Binding Reactivity (% WT) [1]: 8 % WT | Binding Reactivity (% WT) [2]: 1.1 % WT
B1: VL3VHK20TFT Fab (Fab, V domains shown)
VH: QVQLVQSGAEVKKPGASVKVSCKASGYTFTKYWINWVRQAPGQGLEWMGIIYPGSSTSNYNEKFKTRVTMTVDTSTSTAYMELSSLRSEDTAVYYCVKNDNWGQGTLVTVSS
VL: DIQMTQSPSSLSASVGDRVTITCRASESVDNYGISFMNWFQQKPGKAPKLLIYAASDLGSGVPSRFSGSGSGTDFTLTISSLQPEDFATYYCHQSKEVPYTFGQGTKLEIK
